Experimental data from the DeepSol protein solubility set.

Experiment: soluble on expression in E. coli; label from the status in PepcDB or PDB records

Row | Sequence | soluble on expression in E. coli
1 | MSLAPVNIFKAGADEERAETARLTSFIGAIAIGDLVKSTLGPKGMDKILLSSGRDASLMVTNDGATILKNIGVDNPAAKVLVDMSRVQDDEVGDGTTSVTVLAAELLREAESLIAKKIHPQTIIAGWREATKAAREALLSSAVDHGSDEVKFRQDLMNIAGTTLSSKLLTHHKDHFTKLAVEAVLRLKGSGNLEAIHIIKKLGGSLADSYLDEGFLLDKKIGVNQPKRIENAKILIANTGMDTDKIKIFGSRVRVDSTAKVAEIEHAEKEKMKEKVERILKHGINCFINRQLIYNYPEQLFGAAGVMAIEHADFAGVERLALVTGGEIASTFDHPELVKLGSCKLIEEVMIGEDKLIHFSGVALGEACTIVLRGATQQILDEAERSLHDALCVLAQTVKDSRTVYGGGCSEMLMAHAVTQLANRTPGKEAVAMESYAKALRMLPTIIADNAGYDSADLVAQLRAAHSEGNTTAGLDMREGTIGDMAILGITESFQVKRQVLLSAAEAAEVILRVDNIIKAAPRKRVPDHHEGHHHHHH | soluble
2 | MGSDKIHHHHHHMEVLSGECRSASSVASAGGGHAESWARYASMDRKGESSMAAQQPTILATSGGYKAGRRSRLEFDALLHHAVELSGVTGRAPRVTHIGTAAGDQRSFNAELDQAAKIAGFDFSHLNLFTMPSIDDPEAHLLEQDVVWVNGGSVVNLLAVWRAHGLDGILRRVWEAGVVLAGVSAGSICWFQGGTTDSYGPQLRPVTNALGFLPYANGVHYDSEVQRRPLVHRLVADGTLGETHCTDDGAGLVYFGTHLAEAVTEVRGKAAYRVTRHIQGGGAATAAEERLEARFLG | not soluble
3 | MGKMIPYVIDLDAIFDLSSIEIYRLLTSSLSNVRYYPPKDLLKTVINDFDISKFKPFPDSQYLEELNYRARIYVITNLPKIEAKLLLVRYNLDAFIQDVISPEDINRYFPSKEVLVLISRKTNSPLGSITFITPHIDYAILTSNLGMRTILIRNSISLPRDIRVEIRKSLVELAEITAQHKIDSEAGDSALRCQ | not soluble
4 | MEKVVCIGCGVTIQTEDKTGLGYAPPASLTKENVICQRCFRLKNYNEIQDVSLTDDDFLNILHGIGETDSLVVKIVDIFDFNGSWINGLQRLVGGNPILLVGNKADILPKSLKRERLIQWMKREAKELGLKPVDVFLVSAGRGQGIREVIDAIEHYRNGKDVYVVGCTNVGKSTFINRIIKEVSGEEDIITTSQFPGTTLDAIEIPLDDGSSLYDTPGIINNHQMAHYVNKKDLKILSPKKELKPRTFQLNDQQTLYFGGLARFDYVSGERSPFICYMPNELMIHRTKLENADALYEKHAGELLTPPGKDEMDEFPELVAHTFTIKDKKTDIVFSGLGWVTVHDADKKVTAYAPKGVHVFVRRSLILEHHHHHH | soluble
5 | MDPSENVFKYETAYDLLVRLGAERLFLRTCLSILDPVLELHPGKCYEIDGDLGVGKTQICYSFAAKFLQTKKTAKMGWIGATPLRTDHLLLHIEHFGNQTNEDILDRIVCKRVEKIAELQDSLTRFLDTINLQLVIVENIDAILHDTVYHKEMGRSMQSDVVERIRKLTKLEITVILTNHITHWRGYPAPALGAFWSSQINNRFFIEKRNDDSDIRIVSAMKGEQDDGMNRIEFKIGDRGLKAVE | not soluble
6 | VPPPGTMVMVERKVGSWVDGQPIDLQRDWRSWEQLPDSLKVAVIAGEDQHFAEHHGFDLPAIQQALAHNERGGSIRGASTLSQQVAKNVFLWSGRSWLRKGLEAWFTLLIETLWTKQRILEVYLNSAEWGPGVFGAQAAARYHFGLDAERLSRTQASQLAAVLPSPLKWSAARPGPYVRQRAAWIRQQMWQLGGDDYLLRLER | not soluble
7 | MAHHHHHHMSVCARALWQRSRLLCRCLIMCPTPLSTARWRAGHGWLSRKRGDAEAPPSRERRRHPHANTRHSHAHMMALTLDPRWNAMRRGIAGIGVCAVDGRGGAAAPGSCRLSLCSCLSPASSGGCGGADSALSEGGHCRECVCGMRGRLPSPKKPWNSLAGVLVGVRVTHAASVLEDRPVALGRLVSRLSEAAYKAEMLRTGKRDRDGEDRRGDAAQLLVVDAGTRVTVRTEGDPASGAAVAPSAMHMKGTIAKVNGNATYIILMEKGEVELSVASERIVALQPRKKLFQSARLVALV | soluble
8 | MSLKYDVCIIGAGPAGYAAAMRALDLNKSVILIEKDKIGGAGLYNGAISSKTFWELAKDIQTARKRLAQYSPDQHFSVTYQQVLRQVREGIANRRFHLEGQIESLAKQQTSRFRYIKGSAKLVSHNTVEVSTGTEEEIIEAENVVIATGSKPRKLPNIPIDEKIIVTSDGVENFENFPKSLVILGAGVIGCEWATIFSNFGYTSVNIIDKAERILPFEDDDVTDVVEANMKKQGITVHKKSNLLSMRIVDGEVEYILEYTDGRKEMHRVEKVLVSVGRIPNTQNLGLERVGVNILANGQIENTDGQTNIPNIYVAGDISSDVALVNVAELEGRHVIEKMFGLSDSVITYNNVSTIMFVQPEVAGVGMNEKKALQNKMSYKVVKIRYDMIPRAIAMRNNDGFFKILVTNDADMKIIGMRAVGVHASSAIQAVALLISMDKGVEELADMIHPHPSIIEGIQECIRMLLGKSVLKPEFFKGMLSCKSCDENGCVNDIIYLREGHHHHHH | soluble
9 | MQTYGGGWVLFQNRFDDSESYWDRKWDEYKNGFGDVDENSNFWLGNEALHVMTTNKKVTLRVEMYGDRTPNSKNATDFWFGHYFDFQVGSKTQNYPLLDLTMDWANPIGNASTAWYDLTCSIGSPFSTIDNIHDPVKECVTKFQMG | not soluble
10 | MRLLDIWMRSAAALMLLSGAAFADVTVSQSNDPSVSLGGQLSALLGAERSALGTLPAQRLEQVAAAVARPEAKPEAPVKAVATKGNRGAKAADDAPAPRYDEAWLASQPATAKDSDEWKCLATALYFEARGESIQGQFAVAEVIMNRVDRPGYPGSICGVVRQGGQFSFMFDGKPETIREKAAFQRAGKIAALMLAGAPRQLTQGATHFHTRAVRPGWAHRFPRTAAIGAHLFYRQPGGS | not soluble
11 | MPDAVVVGAGPNGLVAANLLADAGWSVTVLEEQPEPGGAVRHDGEVAPGFVNDLFSSFYPLAAASPVLGGLRLEEHGLRWAHAPHVLAHPLTDGTCAVLDRDVATTAASLDAFALGDGAAWERLHAVWDRYRADILDALFTPFPPVRATARLALRLRGAGGLRLARTLVLPVRRMGEEEFRGEGGRLLLAGNALHADLAPEAAGSGGFGWLMSMLGQTYGFPVPVGGSGALTEALVHRLRARGGTLHCGRRVERVLVRDRRAVGVRTADGETVTARRAVLANVSVPALYGRLVAPADLPDQVLTDLRRFQWDFATFKVDWALDGPVPWQCEAAARAGTVHLSDGLDELTRFAAQIAMRQVPDRPFSLFGQMTTTDPTRSPRGTESAWAYTHVPHDIRADAGEEGITGTWDTGERELMADRVERQVERFAPGFRALIRARRVLAPPTLQALDANLEGGAINGGTTAMHQQLVFRPVPGTGRPETPVAGLFLASAGAHPGGGVHGAPGANAARAALRQHRFAGLARIQRALTRRDRAGDRHLEHHHHHH | not soluble
12 | MSLTIVAMNDVVKSFTGDIILEKVSLQLEEGERVGLIGRNGEGKSTILKILKGTEGVDSGIVTSKKGAKIGLLEQLSTVDPNIIVEQYLRTSFGELEELEKELRALEGEMATNSSEKLMNRYGDKMALFGELGGYEMDANLNKVVNGLGIGSLLSQRWGDLSGGEKTKVALAHLLLQKTDLLLLDEPTNHLDLMAVEWLTAFLQHYSGTVLVVSHDRYFLDEVVEKMVELENRELIVYHTNFSGYLKEREERLLREFQDYKDQQKKIKKMQQAIKRLRQWAMQANPPNDAMFRRAKNMERALERMEKVKRPVLTQKQMQLQFDEAGRSGQEVVVMENLSKSFSEKAIVQDVSLQIRQGERVAIIGENGAGKSTLLKIMEGKVVPDVGMIKVGASVKIASLSQQMEELNEKLTVLDAFRDKVAVTEGEARQMLAGFMFYGEMVFRKVGNISGGERMRLRLAQFINMPVNTLILDEPTNHLDIASREILEEAIRAFSGTIITVSHDRYFIDQLCSKVIWLENKQLTVYEGNYSYATSKREGHHHHHH | not soluble
